The target in this data set is thrombin (UniProt P00734;P00734 328-363;364-622). The experiment in a line: SPR. In general terms: Surface plasmon resonance follows binding to a sensor surface in real time, without labels.

B1: SuperCan (structured_DNA)
DNA: GAAGAATGAACAGAGTAGGTCAAAGTCAGTGGGGAGTACACCACTGACGACGAGTTGAATGAACGTAGGAAGTAAGTATACGTTCATTCTTAGCTTCCAAAGCAGAGTGCGAGGCTTTGGAGCGTAACTTGCGTTATCGTCGCAAGAAAGCAAACGGTGATGAGACAATC
As to B1, the binding result is recorded as “binds”.

Values taken from publication doi:10.1101/2025.11.27.690911.
